Literature values, collected in paper PMC7101271.

Molecular target: Rab7 (UniProt P51149)
UniProt P51149, sequence (P51149 2-207): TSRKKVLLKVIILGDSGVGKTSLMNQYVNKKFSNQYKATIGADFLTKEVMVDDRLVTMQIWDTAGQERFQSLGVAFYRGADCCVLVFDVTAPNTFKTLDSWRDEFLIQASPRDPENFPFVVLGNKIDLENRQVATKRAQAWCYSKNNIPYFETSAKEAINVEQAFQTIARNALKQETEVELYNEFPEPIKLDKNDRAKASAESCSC

Substance: GDI (from UniProt P21856)
- Kd: > 50 µM
